Test results taken from patent US10745365B2, “Luminogenic and fluorogenic compounds and methods to detect molecules or conditions” (Promega Corporation, priority 2005, dated 2020).

Key:
[1] = substrate: NCCCOc1ccc2nc(C3=N[C@@H](C(=O)O)CS3)sc2c1; experiment: purified protein, by the assay type; settings: other: fit of Tables 23-24
[2] = substrate: CNCCCOc1ccc2nc(C3=N[C@@H](C(=O)O)CS3)ccc2c1; experiment: purified protein, by the assay type
[3] = substrate: CNCCCOc1ccc2c(C)cc(=O)oc2c1; experiment: Fluorogenic MAO A substrate assay; type: biochemical, human; settings: other: fit of Table 31
Experimental: (§1) The fluorescent signal was then measured (excitation/emission=355/460 nm) on a Fluoroskan Ascent plate fluorometer.
(§2) This 90 μl contained 35 μl 200 mM Tricine pH 8.3, 35 μl 200 mM Tricine pH 8.7 (or water), 10 μl 200 mM MgSO4, and 10 μl of each substrate dilution.

[4] = substrate: NCCCOc1ccc2nc(C3=N[C@@H](C(=O)O)CS3)sc2c1; experiment: Two-step bioluminogenic MAO B substrate assay; type: biochemical, human
[5] = substrate: CNCCCOc1ccc2nc(C3=N[C@@H](C(=O)O)CS3)ccc2c1; experiment: Two-step bioluminogenic MAO B substrate assay; type: biochemical, human; settings: other: fit of Tables 23-24
[6] = substrate: CNCCCOc1ccc2c(C)cc(=O)oc2c1; experiment: Fluorogenic MAO B substrate assay; type: biochemical, human; settings: other: fit of Table 31
Experimental: as §1, §2

[7] = substrate: CNCCCOc1ccc2nc(C3=N[C@@H](C(=O)O)CS3)ccc2c1; experiment: Two-step luminescent FMO 3 assay; type: biochemical, human; settings: other: fit of Table 33
[8] = substrate: O=C(O)[C@H]1O[C@@H](Oc2ccc3nc(C4=N[C@@H](C(=O)O)CS4)sc3c2)[C@H](O)[C@@H](O)[C@@H]1O; experiment: Beta-glucuronidase (GUS) assay; type: biochemical, human; settings: other: 50 mM MES, pH 6.3
Experimental: The source of the human enzyme was Sigma-Aldrich. GUS was incubated with the substrate in 50 mM MES, pH 6.3, for 15 minutes.

B1: human recombinant monoamine oxidase A (MAO A) (Homo sapiens) (protein)
chain: MENQEKASIAGHMFDVVVIGGGISGLSAAKLLTEYGVSVLVLEARDRVGGRTYTIRNEHVDYVDVGGAYVGPTQNRILRLSKELGIETYKVNVSERLVQYVKGKTYPFRGAFPPVWNPIAYLDYNNLWRTIDNMGKEIPTDAPWEAQHADKWDKMTMKELIDKICWTKTARRFAYLFVNINVTSEPHEVSALWFLWYVKQCGGTTRIFSVTNGGQERKFVGGSGQVSERIMDLLGDQVKLNHPVTHVDQSSDNIIIETLNHEHYECKYVINAIPPTLTAKIHFRPELPAERNQLIQRLPMGAVIKCMMYYKEAFWKKKDYCGCMIIEDEDAPISITLDDTKPDGSLPAIMGFILARKADRLAKLHKEIRKKKICELYAKVLGSQEALHPVHYEEKNWCEEQYSGGCYTAYFPPGIMTQYGRVIRQPVGRIFFAGTETATKWSGYMEGAVEAGERAAREVLNGLGKVTEKDIWVQEPESKDVPAVEITHTFWERNLPSVSGLLKIIGFSTSVTALGFVLYKYKLLPRS
notes: purchased Sigma Chemical Company M-7316; host or cells: baculovirus infected insect cells (microsomes)
[1]
  Km: 1320 µM
[2]; other: fit of Table 22
  Km: 1560 ± 130 µM
[2]; other: fit of Tables 23-24
  Km: 1700 µM
[3]
  Km: 21 ± 1 µM

B2: human recombinant monoamine oxidase B (MAO B) (Homo sapiens) (protein)
chain: MSNKCDVVVVGGGISGMAAAKLLHDSGLNVVVLEARDRVGGRTYTLRNQKVKYVDLGGSYVGPTQNRILRLAKELGLETYKVNEVERLIHHVKGKSYPFRGPFPPVWNPITYLDHNNFWRTMDDMGREIPSDAPWKAPLAEEWDNMTMKELLDKLCWTESAKQLATLFVNLCVTAETHEVSALWFLWYVKQCGGTTRIISTTNGGQERKFVGGSGQVSERIMDLLGDRVKLERPVIYIDQTRENVLVETLNHEMYEAKYVISAIPPTLGMKIHFNPPLPMMRNQMITRVPLGSVIKCIVYYKEPFWRKKDYCGTMIIDGEEAPVAYTLDDTKPEGNYAAIMGFILAHKARKLARLTKEERLKKLCELYAKVLGSLEALEPVHYEEKNWCEEQYSGGCYTTYFPPGILTQYGRVLRQPVDRIYFAGTETATHWSGYMEGAVEAGERAAREILHAMGKIPEDEIWQSEPESVDVPAQPITTTFLERHLPSVPGLLRLIGLTTIFSATALGFLAHKRGLLVRV
notes: purchased Sigma Chemical Company M-7441; host or cells: baculovirus infected insect cells (microsomes)
[4]; other: fit of Table 21
  Km: 24 ± 1 µM
[4]; other: fit of Tables 23-24
  Km: 1880 µM
[5]
  Km: 650 µM
[6]
  Km: 16 ± 1 µM

B3: human recombinant flavin-containing monooxygenase 3 (FMO 3) (Homo sapiens) (protein)
chain: MGKKVAIIGAGVSGLASIRSCLEEGLEPTCFEKSNDIGGLWKFSDHAEEGRASIYKSVFSNSSKEMMCFPDFPFPDDFPNFMHNSKIQEYIIAFAKEKNLLKYIQFKTFVSSVNKHPDFATTGQWDVTTERDGKKESAVFDAVMVCSGHHVYPNLPKESFPGLNHFKGKCFHSRDYKEPGVFNGKRVLVVGLGNSGCDIATELSRTAEQVMISSRSGSWVMSRVWDNGYPWDMLLVTRFGTFLKNNLPTAISDWLYVKQMNARFKHENYGLMPLNGVLRKEPVFNDELPASILCGIVSVKPNVKEFTETSAIFEDGTIFEGIDCVIFATGYSFAYPFLDESIIKSRNNEIILFKGVFPPLLEKSTIAVIGFVQSLGAAIPTVDLQSRWAAQVIKGTCTLPSMEDMMNDINEKMEKKRKWFGKSETIQTDYIVYMDELSSFIGAKPNIPWLFLTDPKLAMEVYFGPCSPYQFRLVGPGQWPGARNAILTQWDRSLKPMQTRVVGRLQKPCFFFHWLKLFAIPILLIAVFLVLT
notes: purchased Sigma Chemical Company F-5053; host or cells: baculovirus infected insect cells (microsomes)
[7]
  Km: 200 ± 20 µM

B4: beta-glucuronidase (GUS) (Homo sapiens) (protein)
chain: LQGGMLYPQESPSRECKELDGLWSFRADFSDNRRRGFEEQWYRRPLWESGPTVDMPVPSSFNDISQDWRLRHFVGWVWYEREVILPERWTQDLRTRVVLRIGSAHSYAIVWVNGVDTLEHEGGYLPFEADISNLVQVGPLPSRLRITIAINNTLTPTTLPPGTIQYLTDTSKYPKGYFVQNTYFDFFNYAGLQRSVLLYTTPTTYIDDITVTTSVEQDSGLVNYQISVKGSNLFKLEVRLLDAENKVVANGTGTQGQLKVPGVSLWWPYLMHERPAYLYSLEVQLTAQTSLGPVSDFYTLPVGIRTVAVTKSQFLINGKPFYFHGVNKHEDADIRGKGFDWPLLVKDFNLLRWLGANAFRTSHYPYAEEVMQMCDRYGIVVIDECPGVGLALPQFFNNVSLHHHMQVMEEVVRRDKNHPAVVMWSVANEPASHLESAGYYLKMVIAHTKSLDPSRPVTFVSNSNYAADKGAPYVDVICLNSYYSWYHDYGHLELIQLQLATQFENWYKKYQKPIIQSEYGAETIAGFHQDPPLMFTEEYQKSLLEQYHLGLDQKRRKYVVGELIWNFADFMTEQSPTRVLGNKKGIFTRQRQPKSAAFLLRERYWKIANETRYPHSVAKSQCLENSLFT
notes: purchased Sigma-Aldrich
[8]
  Km: 180 ± 30 µM
